Measurements: IntAct's records for PubMed 17483306

B1: ATPase 2, plasma membrane-type (Arabidopsis thaliana (Mouse-ear cress)), P19456 (parent)
chain: MSSLEDIKNETVDLEKIPIEEVFQQLKCSREGLTTQEGEDRIQIFGPNKLEEKKESKLLKFLGFMWNPLSWVMEMAAIMAIALANGDGRPPDWQDFVGIICLLVINSTISFIEENNAGNAAAALMAGLAPKTKVLRDGKWSEQEAAILVPGDIVSIKLGDIIPADARLLEGDPLKVDQSALTGESLPVTKHPGQEVFSGSTCKQGEIEAVVIATGVHTFFGKAAHLVDSTNQVGHFQKVLTAIGNFCICSIAIGMVIEIIVMYPIQRRKYRDGIDNLLVLLIGGIPIAMPTVLSVTMAIGSHRLSQQGAITKRMTAIEEMAGMDVLCSDKTGTLTLNKLSVDKNLVEVFCKGVEKDQVLLFAAMASRVENQDAIDAAMVGMLADPKEARAGIREVHFLPFNPVDKRTALTYIDGSGNWHRVSKGAPEQILELAKASNDLSKKVLSIIDKYAERGLRSLAVARQVVPEKTKESPGAPWEFVGLLPLFDPPRHDSAETIRRALNLGVNVKMITGDQLAIGKETGRRLGMGTNMYPSSALLGTHKDANLASIPVEELIEKADGFAGVFPEHKYEIVKKLQERKHIVGMTGDGVNDAPALKKADIGIAVADATDAARGASDIVLTEPGLSVIISAVLTSRAIFQRMKNYTIYAVSITIRIVFGFMLIALIWEFDFSAFMVLIIAILNDGTIMTISKDRVKPSPTPDSWKLKEIFATGVVLGGYQAIMTVIFFWAAHKTDFFSDTFGVRSIRDNNHELMGAVYLQVSIISQALIFVTRSRSWSFVERPGALLMIAFLIAQLIATLIAVYANWEFAKIRGIGWGWAGVIWLYSIVTYFPLDVFKFAIRYILSGKAWLNLFENKTAFTMKKDYGKEEREAQWALAQRTLHGLQPKEAVNIFPEKGSYRELSEIAEQAKRRAEIARLRELHTLKGHVESVVKLKGLDIETPSHYTV
partner: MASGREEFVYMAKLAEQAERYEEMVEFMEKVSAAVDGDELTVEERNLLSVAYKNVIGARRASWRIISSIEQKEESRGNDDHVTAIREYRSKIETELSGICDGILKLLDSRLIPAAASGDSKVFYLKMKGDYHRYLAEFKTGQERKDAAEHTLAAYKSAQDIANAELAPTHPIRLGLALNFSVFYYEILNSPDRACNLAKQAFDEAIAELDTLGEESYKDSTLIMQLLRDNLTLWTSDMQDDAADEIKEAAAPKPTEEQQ
B2: ATPase 2, plasma membrane-type (Arabidopsis thaliana (Mouse-ear cress)), P19456 (parent)
chain: B1 chain
partner: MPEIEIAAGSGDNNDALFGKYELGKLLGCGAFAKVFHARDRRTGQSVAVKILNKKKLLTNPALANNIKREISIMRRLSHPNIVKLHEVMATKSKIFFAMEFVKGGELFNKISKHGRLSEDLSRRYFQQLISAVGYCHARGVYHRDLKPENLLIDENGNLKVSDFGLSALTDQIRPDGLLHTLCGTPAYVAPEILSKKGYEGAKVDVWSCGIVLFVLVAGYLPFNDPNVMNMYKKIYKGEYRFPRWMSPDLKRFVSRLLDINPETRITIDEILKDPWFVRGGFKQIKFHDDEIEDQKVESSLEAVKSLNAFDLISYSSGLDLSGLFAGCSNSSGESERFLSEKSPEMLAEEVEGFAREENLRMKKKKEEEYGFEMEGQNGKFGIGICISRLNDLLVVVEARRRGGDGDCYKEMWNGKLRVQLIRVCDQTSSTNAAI

Variants of: B1
Conditions: with 14332_arath GRF2, Q01525

Variant	effect of a mutation on the interaction
R913A;S931D	decreasing interaction
S931A	increasing interaction
S931D	disrupting interaction

Variants of: B2
Conditions: with cipkb_arath CIPK11, O22932

Variant	effect of a mutation on the interaction
S931A	disrupting interaction
